Each block holds one molecule with its values, some of them ahead of it.
Assays:
[1] = molecular target: ACP (Escherichia coli) (UniProt P0A6A8); conditions: cited from earlier work
[2] = molecular target: T1, His6-LpxD (wild-type E. coli LpxD acyltransferase) (E. coli, UniProt P21645 3-341); assay: crystal structure
T1 sequence: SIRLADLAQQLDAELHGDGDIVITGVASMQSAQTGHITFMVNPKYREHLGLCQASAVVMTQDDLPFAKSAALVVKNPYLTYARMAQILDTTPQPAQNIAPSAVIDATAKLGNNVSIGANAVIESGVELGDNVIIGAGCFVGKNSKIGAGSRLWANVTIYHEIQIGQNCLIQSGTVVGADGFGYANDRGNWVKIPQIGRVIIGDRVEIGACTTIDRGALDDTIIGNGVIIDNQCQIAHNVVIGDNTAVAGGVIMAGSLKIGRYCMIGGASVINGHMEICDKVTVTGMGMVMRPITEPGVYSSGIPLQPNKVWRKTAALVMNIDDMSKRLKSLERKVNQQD

[3] = molecular target: T2, His239Ala His6-LpxD (catalytically inactive) (E. coli, UniProt P21645 3-341, His239Ala); assay: crystal structure
T2 sequence: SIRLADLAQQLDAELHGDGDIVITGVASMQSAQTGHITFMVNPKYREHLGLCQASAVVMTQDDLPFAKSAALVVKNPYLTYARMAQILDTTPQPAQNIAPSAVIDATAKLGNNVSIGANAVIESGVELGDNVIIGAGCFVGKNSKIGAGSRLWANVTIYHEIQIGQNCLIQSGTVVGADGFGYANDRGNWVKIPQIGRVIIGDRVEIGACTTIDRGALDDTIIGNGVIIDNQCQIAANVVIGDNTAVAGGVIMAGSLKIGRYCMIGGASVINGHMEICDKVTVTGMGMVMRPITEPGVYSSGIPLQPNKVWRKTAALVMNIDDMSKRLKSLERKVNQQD

Molecule: LpxD (from UniProt P21645)
- Kd [1]: 59 nM

- binding result [2]: binds
B1: holo-ACP (E. coli acyl-carrier-protein with 4'-phosphopantetheine) (natural protein)
chain: SHMSTIEERVKKIIGEQLGVKQEEVTNNASFVEDLGADSLDTVELVMALEEEFDTEIPDEEAEKITTVQAAIDYINGHQA
modifications: 4'-phosphopantetheine (4'-PPT) attached to Ser36, free terminal thiol

- stoichiometry N [3]: 3 ACP per LpxD trimer
B2: R-3-hydroxymyristoyl-ACP (intact-acyl-ACP) (natural protein, E. coli)
chain: SHMSTIEERVKKIIGEQLGVKQEEVTNNASFVEDLGADSLDTVELVMALEEEFDTEIPDEEAEKITTVQAAIDYINGHQA
modifications: 4'-phosphopantetheine attached to Ser36, carrying R-3-hydroxymyristoyl (β-OH-C14) in thioester linkage
